Data as given in paper PMC5187861.

Assays:
Test in all cases: yeast two-hybrid, quantitative β-galactosidase assay
[1] = target: HK1b receiver domain (HK1b-RD), LexA-based two-hybrid bait; settings: HK1b-RD as bait, HPt as prey, standard error bars, read off a plot
[2] = target: HK1a cytoplasmic part (HK1a-CP), LexA-based two-hybrid bait; settings: HK1a-CP as bait, HPt as prey, mean of at least four independent assays in triplicate, standard error bars, read off a plot
[3] = target: HK1b cytoplasmic part (HK1b-CP), LexA-based two-hybrid fusion; settings: HK1b-CP as bait, HPt as prey, standard error bars, read off a plot
[4] = target: HK1a receiver domain (HK1a-RD), LexA-based two-hybrid bait; settings: HK1a-RD as bait, HPt as prey, mean of at least four independent assays in triplicate, standard error bars, read off a plot

Substance | response (β-Galactosidase units) ([1]; parent: est. 11) | response (β-Galactosidase units) ([2]; parent: est. 4.2) | response (β-Galactosidase units) ([3]; parent: est. 2.3) | response (β-Galactosidase units) ([4]; parent: est. 19) | response (β-Galactosidase units) ([1]; parent: est. 240) | response (β-Galactosidase units) ([2]; parent: est. 71) | response (β-Galactosidase units) ([3]; parent: est. 11) | response (β-Galactosidase units) ([4]; parent: est. 120)
HPt1, histidine-containing phosphotransfer protein 1 (two-hybrid prey) K33L; R74K; S77A | 16 | 5.5 | 3.7 | 33 |  |  |  | 
HPt2, histidine-containing phosphotransfer protein 2 (two-hybrid prey) L32K; K73R; A76S |  |  |  |  | 210 | 32 | 7 | 95
